Paper PMC7840946 (Nature Communications, 2021)

Target: PstS1 (Rv0934), recombinant, wild type (Mycobacterium tuberculosis H37Rv, UniProt P9WGU1)
Test: SPR
Settings: both partners purified

PstS1 (Rv0934), recombinant, wild type, sequence (P9WGU1 25-374): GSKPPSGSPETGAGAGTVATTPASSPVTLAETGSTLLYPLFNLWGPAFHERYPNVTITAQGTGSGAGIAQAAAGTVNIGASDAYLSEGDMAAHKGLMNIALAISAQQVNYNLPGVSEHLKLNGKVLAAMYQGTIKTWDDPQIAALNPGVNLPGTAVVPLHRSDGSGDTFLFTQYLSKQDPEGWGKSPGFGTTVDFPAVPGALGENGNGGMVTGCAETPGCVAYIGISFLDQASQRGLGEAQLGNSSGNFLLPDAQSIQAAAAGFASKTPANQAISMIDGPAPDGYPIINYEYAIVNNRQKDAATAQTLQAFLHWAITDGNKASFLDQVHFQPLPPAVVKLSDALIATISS

B1: p4-36gl, predicted germline version of mAb p4-36 (antibody, V domains shown)
VH: EVQLVESGGGLVQPGRSLRLSCTASGFTFGDYAMSWVRQAPGKGLEWVGFIRSKAYGGTTEYAASVKGRFTISRDDSKSIAYLQMNSLKTEDTAVYYCTGPRPYYDSSGYYPYYFDYWGQGTLVTVSS
VL: QSALTQPRSVSGSPGQSVTISCTGTSSDVGGYNYVSWYQQHPGKAPKLMIYDVSKRPSGVPDRFSGSKSGNTASLTISGLQAEDEADYYCCSYAGSYTYVVFGGGTKLTVL
notes: also called germline (gl) version of p4-36
- fold reduction in affinity against the mature p4-36: 4.7 fold
